Data from article PMC10786891, “Massively parallel profiling of RNA-targeting CRISPR-Cas13d”.

T1: EsCas13d, nuclease-dead (Eubacterium siraeum, UniProt B0MS50, R295A;H300A;R849A;H854A)
T1 sequence: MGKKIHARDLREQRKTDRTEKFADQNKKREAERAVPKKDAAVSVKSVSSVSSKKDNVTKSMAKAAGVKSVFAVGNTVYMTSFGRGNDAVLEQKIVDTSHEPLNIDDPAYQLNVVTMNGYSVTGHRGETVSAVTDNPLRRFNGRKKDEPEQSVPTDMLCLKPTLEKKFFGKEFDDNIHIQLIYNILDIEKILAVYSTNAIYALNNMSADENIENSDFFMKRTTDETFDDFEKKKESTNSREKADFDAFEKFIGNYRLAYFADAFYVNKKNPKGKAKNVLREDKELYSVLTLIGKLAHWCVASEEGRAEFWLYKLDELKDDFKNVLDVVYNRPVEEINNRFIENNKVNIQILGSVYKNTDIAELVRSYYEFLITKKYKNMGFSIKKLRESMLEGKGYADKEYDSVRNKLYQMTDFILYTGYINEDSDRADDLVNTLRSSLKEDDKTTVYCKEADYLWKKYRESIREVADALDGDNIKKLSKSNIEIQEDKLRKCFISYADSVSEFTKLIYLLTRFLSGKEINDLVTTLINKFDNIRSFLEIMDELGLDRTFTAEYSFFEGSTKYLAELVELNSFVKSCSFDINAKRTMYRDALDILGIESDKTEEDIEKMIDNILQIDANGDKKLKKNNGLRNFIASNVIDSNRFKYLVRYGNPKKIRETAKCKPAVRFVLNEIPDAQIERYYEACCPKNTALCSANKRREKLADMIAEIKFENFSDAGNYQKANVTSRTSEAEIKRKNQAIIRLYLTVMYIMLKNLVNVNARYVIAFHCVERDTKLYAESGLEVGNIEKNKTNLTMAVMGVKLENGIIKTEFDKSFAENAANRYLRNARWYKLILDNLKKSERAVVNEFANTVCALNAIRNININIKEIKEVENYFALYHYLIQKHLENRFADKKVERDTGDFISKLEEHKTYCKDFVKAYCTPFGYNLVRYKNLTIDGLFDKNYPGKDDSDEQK


Molecular target: T1, EsCas13d, nuclease-dead
Experiment: crRNA (strand 1, pre-loaded); Mg2+; 40 mM Tris-HCl pH 7.5, 150 mM NaCl, 6 mM MgCl2, 1 mM DTT, 0.1% Tween-20, 0.2 mg/ml BSA; 25 C; 10 min per concentration, then washed
Details: tags: His6-TwinStrep-SUMO cleaved; N-terminal SNAP kept (SNAP-Surface 488); label: 3' end held by stalled T7 RNA polymerase

Binder	Kd [nM]
target 1 insC 3' of 16,insG 3' of 6 (mixed) RNA 1: CACCCGUGCAAAAAUGCAGGGGUCUAAAACUGAGCGGAUAACCUCUCUAUGG RNA 2: GGGAAUGGAUCCACAUCUACGAAUUCGUACCAUAGACGAGGUUAUCCGGCUCACCGAGAUCGGAAGAGCACACGU	~100
target 1 G13A,U19G (mixed) RNA 1: CACCCGUGCAAAAAUGCAGGGGUCUAAAACUGAGCGGAUAACCUCUCUAUGG RNA 2: GGGAAUGGAUCCACAUCUACGAAUUCGUACCAGAGAGAAGUUAUCCGCUCACCGAGAUCGGAAGAGCACACGU	80 ± 40
target 1 C6U,U10C (mixed) RNA 1: CACCCGUGCAAAAAUGCAGGGGUCUAAAACUGAGCGGAUAACCUCUCUAUGG RNA 2: GGGAAUGGAUCCACAUCUACGAAUUCGUACCAUAGAGAGGUCAUCUGCUCACCGAGAUCGGAAGAGCACACGU	19.7 ± 0.8
target 1 insC 3' of 3,insA 3' of 2 (mixed) RNA 1: CACCCGUGCAAAAAUGCAGGGGUCUAAAACUGAGCGGAUAACCUCUCUAUGG RNA 2: GGGAAUGGAUCCACAUCUACGAAUUCGUACCAUAGAGAGGUUAUCCGCUCCAACCGAGAUCGGAAGAGCACACGU	13.6 ± 1.2
target 1 C7G,A16U (mixed) RNA 1: CACCCGUGCAAAAAUGCAGGGGUCUAAAACUGAGCGGAUAACCUCUCUAUGG RNA 2: GGGAAUGGAUCCACAUCUACGAAUUCGUACCAUAGUGAGGUUAUGCGCUCACCGAGAUCGGAAGAGCACACGU	53 ± 4
target 1 A1U,C21A (mixed) RNA 1: CACCCGUGCAAAAAUGCAGGGGUCUAAAACUGAGCGGAUAACCUCUCUAUGG RNA 2: GGGAAUGGAUCCACAUCUACGAAUUCGUACAAUAGAGAGGUUAUCCGCUCUCCGAGAUCGGAAGAGCACACGU	25.3 ± 3.1
target 1 complement block 1-12 (mixed) RNA 1: CACCCGUGCAAAAAUGCAGGGGUCUAAAACUGAGCGGAUAACCUCUCUAUGG RNA 2: GGGAAUGGAUCCACAUCUACGAAUUCGUACCAUAGAGAGCAAUAGGCGAGUCCGAGAUCGGAAGAGCACACGU	19.6 ± 1
target 1 insG 3' of 22,insC 3' of 13 (mixed) RNA 1: CACCCGUGCAAAAAUGCAGGGGUCUAAAACUGAGCGGAUAACCUCUCUAUGG RNA 2: GGGAAUGGAUCCACAUCUACGAAUUCGUACGCAUAGAGAGCGUUAUCCGCUCACCGAGAUCGGAAGAGCACACGU	44 ± 6
target 1 complement block 2-12 (mixed) RNA 1: CACCCGUGCAAAAAUGCAGGGGUCUAAAACUGAGCGGAUAACCUCUCUAUGG RNA 2: GGGAAUGGAUCCACAUCUACGAAUUCGUACCAUAGAGAGCAAUAGGCGAGACCGAGAUCGGAAGAGCACACGU	23.4 ± 1.6
target 1 C6G,U10A (mixed) RNA 1: CACCCGUGCAAAAAUGCAGGGGUCUAAAACUGAGCGGAUAACCUCUCUAUGG RNA 2: GGGAAUGGAUCCACAUCUACGAAUUCGUACCAUAGAGAGGUAAUCGGCUCACCGAGAUCGGAAGAGCACACGU	8.6 ± 0.6
target 1 insG 3' of 9,insG 3' of 8 (mixed) RNA 1: CACCCGUGCAAAAAUGCAGGGGUCUAAAACUGAGCGGAUAACCUCUCUAUGG RNA 2: GGGAAUGGAUCCACAUCUACGAAUUCGUACCAUAGAGAGGUUAGUGCCGCUCACCGAGAUCGGAAGAGCACACGU	17.2 ± 1.3
target 1 G12A,G17A (mixed) RNA 1: CACCCGUGCAAAAAUGCAGGGGUCUAAAACUGAGCGGAUAACCUCUCUAUGG RNA 2: GGGAAUGGAUCCACAUCUACGAAUUCGUACCAUAAAGAGAUUAUCCGCUCACCGAGAUCGGAAGAGCACACGU	30.8 ± 3.2
target 1 insG 3' of 21,insG 3' of 7 (mixed) RNA 1: CACCCGUGCAAAAAUGCAGGGGUCUAAAACUGAGCGGAUAACCUCUCUAUGG RNA 2: GGGAAUGGAUCCACAUCUACGAAUUCGUACCGAUAGAGAGGUUAUCGCGCUCACCGAGAUCGGAAGAGCACACGU	68 ± 5
target 1 C7A,A9U (mixed) RNA 1: CACCCGUGCAAAAAUGCAGGGGUCUAAAACUGAGCGGAUAACCUCUCUAUGG RNA 2: GGGAAUGGAUCCACAUCUACGAAUUCGUACCAUAGAGAGGUUUUACGCUCACCGAGAUCGGAAGAGCACACGU	7.5 ± 0.4
target 1 G5C,U10G (mixed) RNA 1: CACCCGUGCAAAAAUGCAGGGGUCUAAAACUGAGCGGAUAACCUCUCUAUGG RNA 2: GGGAAUGGAUCCACAUCUACGAAUUCGUACCAUAGAGAGGUGAUCCCCUCACCGAGAUCGGAAGAGCACACGU	17.5 ± 0.9
target 1 insA 3' of 21,insG 3' of 18 (mixed) RNA 1: CACCCGUGCAAAAAUGCAGGGGUCUAAAACUGAGCGGAUAACCUCUCUAUGG RNA 2: GGGAAUGGAUCCACAUCUACGAAUUCGUACCAAUAGGAGAGGUUAUCCGCUCACCGAGAUCGGAAGAGCACACGU	77 ± 20
target 1 A1G,C21A (mixed) RNA 1: CACCCGUGCAAAAAUGCAGGGGUCUAAAACUGAGCGGAUAACCUCUCUAUGG RNA 2: GGGAAUGGAUCCACAUCUACGAAUUCGUACAAUAGAGAGGUUAUCCGCUCGCCGAGAUCGGAAGAGCACACGU	27 ± 4
target 1 insC 3' of 20,insA 3' of 7 (mixed) RNA 1: CACCCGUGCAAAAAUGCAGGGGUCUAAAACUGAGCGGAUAACCUCUCUAUGG RNA 2: GGGAAUGGAUCCACAUCUACGAAUUCGUACCACUAGAGAGGUUAUCACGCUCACCGAGAUCGGAAGAGCACACGU	7.49 ± 0.35
target 1 A9G,G15C (mixed) RNA 1: CACCCGUGCAAAAAUGCAGGGGUCUAAAACUGAGCGGAUAACCUCUCUAUGG RNA 2: GGGAAUGGAUCCACAUCUACGAAUUCGUACCAUAGACAGGUUGUCCGCUCACCGAGAUCGGAAGAGCACACGU	67 ± 20
target 1 insC 3' of 9,insG 3' of 9 (mixed) RNA 1: CACCCGUGCAAAAAUGCAGGGGUCUAAAACUGAGCGGAUAACCUCUCUAUGG RNA 2: GGGAAUGGAUCCACAUCUACGAAUUCGUACCAUAGAGAGGUUACGUCCGCUCACCGAGAUCGGAAGAGCACACGU	18.5 ± 1.2
target 1 U3C,U8A (mixed) RNA 1: CACCCGUGCAAAAAUGCAGGGGUCUAAAACUGAGCGGAUAACCUCUCUAUGG RNA 2: GGGAAUGGAUCCACAUCUACGAAUUCGUACCAUAGAGAGGUUAACCGCCCACCGAGAUCGGAAGAGCACACGU	18.7 ± 1.5
target 1 insU 3' of 21,insG 3' of 7 (mixed) RNA 1: CACCCGUGCAAAAAUGCAGGGGUCUAAAACUGAGCGGAUAACCUCUCUAUGG RNA 2: GGGAAUGGAUCCACAUCUACGAAUUCGUACCUAUAGAGAGGUUAUCGCGCUCACCGAGAUCGGAAGAGCACACGU	23.6 ± 2
target 1 A9G,G13U (mixed) RNA 1: CACCCGUGCAAAAAUGCAGGGGUCUAAAACUGAGCGGAUAACCUCUCUAUGG RNA 2: GGGAAUGGAUCCACAUCUACGAAUUCGUACCAUAGAGAUGUUGUCCGCUCACCGAGAUCGGAAGAGCACACGU	53 ± 6
target 1 C4G,U8A (mixed) RNA 1: CACCCGUGCAAAAAUGCAGGGGUCUAAAACUGAGCGGAUAACCUCUCUAUGG RNA 2: GGGAAUGGAUCCACAUCUACGAAUUCGUACCAUAGAGAGGUUAACCGGUCACCGAGAUCGGAAGAGCACACGU	7.4 ± 0.4
